Molecular target: Francisella tularensis subsp. holarctica LVS 2-C-methyl-D-erythritol 4-phosphate cytidylyltransferase (Francisella tularensis subsp. holarctica LVS)
Assay: SEC

Francisella tularensis subsp. holarctica LVS 2-C-methyl-D-erythritol 4-phosphate cytidylyltransferase (enzyme)
stoichiometry N: 2

— article PMC3111433
